Where two headings read alike, the source gives them in different places. Primed or numbered codes have the meaning given here. Where no end group is shown, it is not given here. [ ]: non-standard residue; d: D form. DBCO‑MMAE = DBCO-PEG3-glutamic acid-valine-citrulline-p-aminobenzylcarbamate-MMAE (DBCO-PEG3-EVC-PABC-MMAE); Lys(N3)′ = its azide, alkyne or alkene has reacted where a group follows in round brackets
How the values were obtained:
NCI-H358 = experiment: in vitro cytotoxicity (MTT); type: cell-based, human
Procedure: (§1) We utilized two different incubation methods.
(§2) We then incubated the human cell lines with ADC, and equivalent concentrations of MMAE and native Ab for both 48 hours and 72 hours, the results of which can be seen in FIG. 13A-13E. We expected the results to correlate with the GPR87 expression we observed by flow cytometry. For the normal cell lines, this was the case. As detailed in FIG. 14, the line that was most sensitive to the ADC were the NHLFs, followed by the BEAS-2Bs, and the line with the lowest GPR87 expression, the HUVECs, had the highest IC50 after 72 hours. However, both the NSCLC cell lines had relatively high IC50s given the GPR87 expression status of these lines.
(§3) In comparison, NCI-H358 and NCI-H520 see approximately a 4-fold or 2-fold decrease in IC50, respectively, between the two time points. On the other hand, the NCI-H520 line has almost a 10-fold increase in MMAE IC50 at 72 hours compared to 48 hours. The results are likely because the cell lines are different sizes and morphologies and therefore are at different confluencies when plated at the same number of cells per well and are therefore likely to be in different parts of their log growth phase during treatment. For example, the NSCLC lines are typically at very low confluency at a plating density of 5,000 cells per well and may not reach log phase growth until later in the assay. As MMAE affects actively dividing cells, this will affect the results of the assay. While 72 hours was not the optimized end time point for all five cell lines, in order to have a standardized cell plating density, and therefore same ADC:cell ratio, going past 72 hours for some of the cell lines would lead to confluency or death in untreated control cells, which would also confound results. Thus, we incubated the two NSCLC lines for longer periods of time to allow the control cells to become more confluent by the assay endpoint, and to see how this would affect the ADC IC50.
(§4) Standard cytotoxicity assays, like the MTT assays ran here, measure or rather, approximate the cell number at an end point and compare to control untreated cells. Effectively what is measured is a comparison between growth rates. When comparing the efficacy of a drug, particularly a mitotic inhibitor, among different cell lines, division rate differences due to biology, media additives, or seeding density can have a dramatic effect on the IC50, an issue brought up by Hafner et al. They reported with both modeling and in vitro assays how using the IC50 as a metric can actually mask the true mechanism of a drug, for example the microtubule inhibitor paclitaxel. […] GR values indicate whether a drug inhibits growth (0<GR<1), is cytostatic (GR=0) or cytotoxic (GR<0). To calculate this parameter, one needs cell count data for at least two different time points and compares experimental growth rates to the growth rate of control cells. […] Consequently, we reviewed the data at our two time points to perform a similar analysis. We plated at the same seeding density for both the 48 and 72 hour time points. As MTT is an endpoint assay rather than a kinetic assay like MTS, we can use MTT signal as a proxy for cell count. […] Therefore, we excluded this cell line from our analysis. We are technically assessing the effect the ADC or equivalent MMAE has on the growth rate of cells at 60 hours, as we are measuring at t=x±delta t, with x being 60 and delta t being 12 hours. Ideally, we would assess an earlier time point or even multiple time points. […] (FIGS. 19A-19D). Conversely, both NCI-H520 and NCI-H358 are cytotoxic (GR<0) at higher concentrations of ADC at this time point. […] While the GR50 data is still not in agreement with GPR87 expression, it does indicate that this type of analysis at other, earlier, time points is useful in assessing the dynamics of ADC and MMAE cytotoxicity in these cell lines.

GPR87 antigen = GPR87 antigen (Homo sapiens, UniProt Q9BY21); experiment: custom ELISA binding analysis of αGPR87 antibody, Ab-CCK and ADC
Sequence of GPR87 antigen (Q9BY21 whole entry): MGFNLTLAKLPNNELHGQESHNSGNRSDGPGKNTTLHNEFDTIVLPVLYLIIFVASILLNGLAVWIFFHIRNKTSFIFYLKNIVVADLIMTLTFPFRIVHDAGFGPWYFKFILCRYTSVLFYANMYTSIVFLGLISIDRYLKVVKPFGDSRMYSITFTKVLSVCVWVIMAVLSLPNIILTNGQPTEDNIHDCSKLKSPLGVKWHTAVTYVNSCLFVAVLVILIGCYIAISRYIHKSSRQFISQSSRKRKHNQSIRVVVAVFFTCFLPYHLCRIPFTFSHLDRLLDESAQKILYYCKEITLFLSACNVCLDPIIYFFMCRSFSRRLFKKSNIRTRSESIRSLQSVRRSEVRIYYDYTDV
Procedure: With the CCE-MMAE peptide successfully synthesized and previous optimization of the antibody loading process with the AFC, it was facile to translate the method to formulating the ADC. Using a similar custom ELISA as before, but with a secondary antibody recognizing mouse antibody, it was contemplated whether the loading of CCE-MMAE, the 50° C. incubation, or even the expression of the peptide tails affected the binding affinity of the antibody. (FIG. 8C) What was found was initially surprising, which was that by adding the peptide tails onto the antibody, the Kd was affected. […] However, if it was taken into consideration the SEC data showing the larger aggregates formed by these antibodies, the results are more consistent. The original analysis was done by using the wt/vol concentration of the antibodies. However, if there are larger aggregates forming such as hexamers of Ab-CCK or hexamers, trimers, and monomers of the ADC, then equivalent wt/vol concentrations will vary by molarity. If it was assumed the Ab-CCK exists as a hexamer and therefore at the same wt/vol concentration as the native Ab is at one sixth the molar concentration, the binding data can be reanalyzed with these adjusted molarities. Similarly, it can be assumed the ADC is forming on average trimers and adjust the molar concentration by one third accordingly. The resulting curves are similar, with the Ab, Ab-CCK, and ADC having Kds of approximately 0.43, 0.46, and 0.41 nM, respectively.

NCI-H520 = experiment: in vitro cytotoxicity (MTT); type: cell-based, human
Procedure: as §1, §2, §3, §4

BEAS-2B = experiment: in vitro cytotoxicity (MTT); type: cell-based, human
Procedure: as §1, §2, §4

NHLF = experiment: in vitro cytotoxicity (MTT); type: cell-based, human
Procedure: as §1, §2, §4

[1] = system: NCI-H358, NCI-H520, NHLF, BEAS-2B, HUVEC; experiment: in vitro cytotoxicity, comparison of ADC and MMAE over the five cell lines; type: cell-based, human; details: 48 and 72 hours
Procedure: as §2
We investigated analyzing other parameters, such as the area under the curve (AUC) for the five cell lines as we noted that the hill slope was variable between different cell lines and between ADC and MMAE treatments. By assessing the AUC, we could interpret the total cytotoxicity of the treatment over all concentrations tested. Rather than the large (>100) fold differences in ADC and MMAE IC50s observed in FIG. 14, FIG. 16 indicates the difference in toxicity between the two are less pronounced, on the order of 1-3-fold difference. However, comparing the toxicity of the ADC across the cell lines, the relationships, or lack thereof, between toxicity and GPR87 expression remain largely the same.

NIH-3T3 = experiment: in vitro cytotoxicity, negative control line; details: NIH-3T3, 10 μg/ml ADC, 72 hours
Procedure: We incubated NIH-3T3s with up to 10 μg/ml of ADC (67 nM, equivalent to 96 ng/ml of MMAE) along with the native antibody and MMAE alone at equivalent concentrations.

[2] = Ab-CCK assumed hexamer, ADC assumed trimer (from SEC), read-out: Kd, reanalyzed with adjusted molarities
[3] = ELISA, analysed by wt/vol concentration, read-out: Kd

Molecule: CCE-MMAE: CCE peptide (SEQ ID NO: 3) conjugated at azido lysine with DBCO-MMAE (MKLEEIVSELEEIVSELEEIV[Lys(N3)′](DBCO‑MMAE)ELEEIVYEVGER)
- toxicity (NCI-H358; NCI-H358, 72 hours, concentrations equivalent to ADC): Toxicity was only observed at the highest concentration

B1: Ab: native murine αhGPR87 IgG1 antibody (331CL), plasmids from Creative Biolabs (antibody)
heavy: EVQLQQSGPDLVKPGASMKISCKASGYSFTDYTMHWVKQSHGKNFEWIGLINPYNDGTTYNQKFKGKATLTVDKSSSTAYMELLSLTSEDSAVYYCASLDYWGQGTSVTVSSAKTTPPSVYPLAPGSAAQTNSMVTLGCLVKGYFPEPVTVTWNSGSLSSGVHTFPAVLQSDLYTLSSSVTVPSSTWPSETVTCNVAHPASSTKVDKKIVPRDCGCKPCICTVPEVSSVFIFPPKPKDVLTITLTPKVTCVVVDISKDDPEVQFSWFVDDVEVHTAQTQPREEQFNSTFRSVSELPIMHQDWLNGKEFKCRVNSAAFPAPIEKTISKTKGRPKAPQVYTIPPPKEQMAKDKVSLTCMITDFFPEDITVEWQWNGQPAENYKNTQPIMDTDGSYFVYSKLNVQKSNWEAGNTFTCSVLHEGLHNHHTEKSLSHSPGK
light: DVVMTQTPLSLPVSLGDQASISCRSSQSLVHSSGNTYLHWYLQKPGQSPKLLIYKVSNRFSGVPDRFSGSGSGTDFTLKISRVEAEDLGVYFCSQSTHVPYTFGGGTKLEIKRADAAPTVSIFPPSSEQLTSGGASVVCFLNNFYPKDINVKWKIDGSERQNGVLNSWTDQDSKDSTYSMSSTLTLTKDEYERHNSYTCEATHKTSTSPIVKSFNRNEC
- Kd (GPR87 antigen; [2]): ~0.43 nM
- Kd (GPR87 antigen; [3]): 0.4 nM

B2: Ab-CCK: αGPR87 antibody 331CL with CCK peptide on the heavy chain C termini via a pentaglycine linker (antibody)
heavy: EVQLQQSGPDLVKPGASMKISCKASGYSFTDYTMHWVKQSHGKNFEWIGLINPYNDGTTYNQKFKGKATLTVDKSSSTAYMELLSLTSEDSAVYYCASLDYWGQGTSVTVSSAKTTPPSVYPLAPGSAAQTNSMVTLGCLVKGYFPEPVTVTWNSGSLSSGVHTFPAVLQSDLYTLSSSVTVPSSTWPSETVTCNVAHPASSTKVDKKIVPRDCGCKPCICTVPEVSSVFIFPPKPKDVLTITLTPKVTCVVVDISKDDPEVQFSWFVDDVEVHTAQTQPREEQFNSTFRSVSELPIMHQDWLNGKEFKCRVNSAAFPAPIEKTISKTKGRPKAPQVYTIPPPKEQMAKDKVSLTCMITDFFPEDITVEWQWNGQPAENYKNTQPIMDTDGSYFVYSKLNVQKSNWEAGNTFTCSVLHEGLHNHHTEKSLSHSPGKGGGGGMKLKKIKSVLKKIKSVLKKIKSVLKKIKSVVGER
light: DVVMTQTPLSLPVSLGDQASISCRSSQSLVHSSGNTYLHWYLQKPGQSPKLLIYKVSNRFSGVPDRFSGSGSGTDFTLKISRVEAEDLGVYFCSQSTHVPYTFGGGTKLEIKRADAAPTVSIFPPSSEQLTSGGASVVCFLNNFYPKDINVKWKIDGSERQNGVLNSWTDQDSKDSTYSMSSTLTLTKDEYERHNSYTCEATHKTSTSPIVKSFNRNEC
- Kd (GPR87 antigen; [2]): ~0.46 nM
- Kd (GPR87 antigen; [3]): 2.8 nM

B3: ADC (conjugate)
heavy: EVQLQQSGPDLVKPGASMKISCKASGYSFTDYTMHWVKQSHGKNFEWIGLINPYNDGTTYNQKFKGKATLTVDKSSSTAYMELLSLTSEDSAVYYCASLDYWGQGTSVTVSSAKTTPPSVYPLAPGSAAQTNSMVTLGCLVKGYFPEPVTVTWNSGSLSSGVHTFPAVLQSDLYTLSSSVTVPSSTWPSETVTCNVAHPASSTKVDKKIVPRDCGCKPCICTVPEVSSVFIFPPKPKDVLTITLTPKVTCVVVDISKDDPEVQFSWFVDDVEVHTAQTQPREEQFNSTFRSVSELPIMHQDWLNGKEFKCRVNSAAFPAPIEKTISKTKGRPKAPQVYTIPPPKEQMAKDKVSLTCMITDFFPEDITVEWQWNGQPAENYKNTQPIMDTDGSYFVYSKLNVQKSNWEAGNTFTCSVLHEGLHNHHTEKSLSHSPGKGGGGGMKLKKIKSVLKKIKSVLKKIKSVLKKIKSVVGER
light: DVVMTQTPLSLPVSLGDQASISCRSSQSLVHSSGNTYLHWYLQKPGQSPKLLIYKVSNRFSGVPDRFSGSGSGTDFTLKISRVEAEDLGVYFCSQSTHVPYTFGGGTKLEIKRADAAPTVSIFPPSSEQLTSGGASVVCFLNNFYPKDINVKWKIDGSERQNGVLNSWTDQDSKDSTYSMSSTLTLTKDEYERHNSYTCEATHKTSTSPIVKSFNRNEC
peptide: MKLEEIVSELEEIVSELEEIVKELEEIVYEVGER
- Kd (GPR87 antigen; [2]): ~0.41 nM
- Kd (GPR87 antigen; [3]): ~1.3 nM
- decrease in IC50 between 48 and 72 hours (NCI-H358; NCI-H358): ~4 fold
- toxicity, 24 hours treatment + 48 hours fresh media vs 72 hours treatment (NCI-H358; NCI-H358): no significant difference between the two treatment groups
- normalized growth rate inhibition (GR) (NCI-H358; NCI-H358, higher concentrations of ADC, 60 hours): < 0
- IC50, start of time course (NCI-H358; NCI-H358, incubation 48, 72 and 120 hours, first value of 'from ... to'): 9.11 ng/ml of MMAE equivalent ADC
- IC50, end of time course (NCI-H358; NCI-H358, longer incubation (up to 120 hours), last value of 'from ... to'): 8.69 ng/ml of MMAE equivalent ADC
- decrease in IC50 between 48 and 72 hours (NCI-H520; NCI-H520): ~2 fold
- IC50 (NCI-H520; NCI-H520, ADC prepared at 50° C.): 3 nM
- IC50 (NCI-H520; NCI-H520, ADC prepared at RT): 4.9 nM
- normalized growth rate inhibition (GR) (NCI-H520; NCI-H520, higher concentrations of ADC, 60 hours): < 0
- IC50, start of time course (NCI-H520; NCI-H520, incubation 48, 72 and 168 hours, first value of 'from ... to'): 12.87 ng/ml of MMAE equivalent ADC
- IC50, end of time course (NCI-H520; NCI-H520, longer incubation (up to 168 hours), last value of 'from ... to'): 5.24 ng/ml of MMAE equivalent ADC
- IC50 (BEAS-2B; ADC prepared at 50° C.): 6.8 nM
- IC50 (BEAS-2B; ADC prepared at RT): 5.3 nM
- GR-based effect (BEAS-2B; at 60 hours): cytotoxic
- GR50 (NHLF): do not reach that value
- difference between 48 and 72 hour IC50s (NHLF): almost identical
- IC50 (NHLF; ADC prepared at 50° C.): 0.8 nM
- IC50 (NHLF; ADC prepared at RT): 0.8 nM
- fold differences in ADC and MMAE IC50s ([1]; FIG. 14): > 100 fold
- fold difference in toxicity (AUC) between ADC and MMAE ([1]; FIG. 16): 1-3 fold
- viability (NIH-3T3): ~76%
